Experimental data taken from patent publication US20080306243A1, “Hla-Binding Peptide, and Dna Fragment and Recombinant Vector Coding for Said Hla-Binding Peptide” (NEC CORPORATION, priority 2005, published 2008).
Where two headings read alike, the source gives them in different places. One block for each binder: values may come before it.

Key:
[1] = target: HLA-A2402 molecule, which is a product of the HLA-A*2402 gene (human); assay: flow cytometry; reassociation of peptide, added β2m and HLA-A2402 on acid-stripped C1R-A24 cells, stained with mAb 17A12
[2] = target: HLA-A0206 molecule, which is a product of the HLA-A*0206 gene (human); assay: flow cytometry; peptide stabilisation of empty HLA-A0206 on RA2.6 cells (TAP-deficient), stained with mAb 17A10 or 17A12
[3] = target: HLA-A0201 molecule, which is a product of the HLA-A*0201 gene (human); assay: flow cytometry; reassociation of peptide, added β2m and HLA-A0201 on acid-stripped JY cells, stained with mAb BB7.2; details: remark: other sources report otherwise
[4] = remark: other sources report otherwise

B2: SEQ ID NO 24 (peptide)
peptide: WVPVVFLTL
modifications: not checked
- -log Kd [2]: 6.74 -log Kd

B6: SEQ ID NO 27 (peptide)
peptide: DLPTQEPAL
modifications: not checked
- -log Kd [2]: 5.26 -log Kd

B7: SEQ ID NO 17 (peptide)
peptide: MLLRLSEPA
- -log Kd [3]: 6.2 -log Kd

B8: SEQ ID NO 22 (peptide)
peptide: LVASRGRAV
modifications: not checked
- -log Kd [2]: 5.25 -log Kd

More lines, now with the values ahead:

- -log Kd [1]: 7.29 -log Kd
B1: SEQ ID NO 2 (peptide)
peptide: WVPVVFLTL
modifications: not checked

- -log Kd [1, 4]: 4.63 -log Kd
B3: SEQ ID NO 12 (peptide)
peptide: WVLTAAHCI

- -log Kd [2]: 6.28 -log Kd
B4: SEQ ID NO 19 (peptide)
peptide: GVLVHPQWV
modifications: not checked

- -log Kd [1, 4]: 5.23 -log Kd
B5: SEQ ID NO 4 (peptide)
peptide: DLPTQEPAL
modifications: not checked
